In IntAct's records for PubMed 17259181:

B1: Zinc finger protein ZAT7 (Arabidopsis thaliana (Mouse-ear cress)), Q42453 (parent)
chain: MVARSEEIVIVEEDTTAKCLMLLSRVGECGGGCGGDERVFRCKTCLKEFSSFQALGGHRASHKKLINSDNPSLLGSLSNKKTKTSHPCPICGVKFPMGQALGGHMRRHRNEKVSGSLVTRSFLPETTTVTALKKFSSGKRVACLDLDLDSMESLVNWKLELGRTISWS
partner: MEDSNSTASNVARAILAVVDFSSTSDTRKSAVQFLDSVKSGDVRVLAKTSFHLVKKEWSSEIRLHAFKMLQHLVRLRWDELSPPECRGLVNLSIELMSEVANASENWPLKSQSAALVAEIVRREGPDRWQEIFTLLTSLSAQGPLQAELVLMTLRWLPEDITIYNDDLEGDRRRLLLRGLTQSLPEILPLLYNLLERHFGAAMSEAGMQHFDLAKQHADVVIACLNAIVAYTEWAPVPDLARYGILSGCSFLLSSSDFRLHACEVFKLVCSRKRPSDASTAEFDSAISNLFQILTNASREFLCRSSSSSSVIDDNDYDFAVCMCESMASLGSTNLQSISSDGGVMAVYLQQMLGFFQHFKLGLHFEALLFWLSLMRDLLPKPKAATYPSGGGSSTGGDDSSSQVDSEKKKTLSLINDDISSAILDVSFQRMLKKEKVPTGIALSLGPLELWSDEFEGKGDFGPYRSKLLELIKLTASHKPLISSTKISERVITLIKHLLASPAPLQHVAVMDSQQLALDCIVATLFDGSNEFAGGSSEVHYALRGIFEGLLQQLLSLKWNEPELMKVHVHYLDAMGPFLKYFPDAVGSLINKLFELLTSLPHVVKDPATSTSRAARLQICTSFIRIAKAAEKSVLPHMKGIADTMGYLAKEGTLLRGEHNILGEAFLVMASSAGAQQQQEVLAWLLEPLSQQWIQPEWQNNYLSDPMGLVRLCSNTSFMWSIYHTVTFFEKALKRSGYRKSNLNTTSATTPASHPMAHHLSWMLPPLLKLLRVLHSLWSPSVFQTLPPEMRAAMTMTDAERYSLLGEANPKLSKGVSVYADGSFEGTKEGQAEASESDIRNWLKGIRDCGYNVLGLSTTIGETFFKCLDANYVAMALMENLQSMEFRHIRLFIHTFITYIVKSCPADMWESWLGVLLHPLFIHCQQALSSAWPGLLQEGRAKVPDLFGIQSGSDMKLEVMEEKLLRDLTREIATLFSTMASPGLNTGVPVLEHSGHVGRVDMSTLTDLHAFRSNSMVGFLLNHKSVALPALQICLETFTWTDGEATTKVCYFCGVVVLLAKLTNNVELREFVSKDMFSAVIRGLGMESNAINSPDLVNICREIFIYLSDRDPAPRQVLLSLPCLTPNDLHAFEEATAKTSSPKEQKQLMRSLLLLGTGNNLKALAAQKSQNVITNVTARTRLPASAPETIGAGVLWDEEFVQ

Variants of: B1
Conditions: with hasty_arath HST1, Q0WP44

Variant	effect of a mutation on the interaction
D145A;L146A;D147A	disrupting interaction
